Measurements from paper PMC4726326, “The Arabidopsis glutamyl-tRNA reductase (GluTR) forms a ternary complex with FLU and GluTR-binding protein” (Scientific Reports, 2016).

B1: Arabidopsis glutamyl-tRNA reductase (GluTR), residues 73-543 (enzyme, Arabidopsis thaliana, UniProt P42804 73-543, looked up)
chain: AASISALEQLKNSAADRYTKERSSIVVIGLSIHTAPVEMREKLAIPEAEWPRAIAELCGLNHIEEAAVLSTCNRMEIYVLALSQHRGVKEVTEWMSKTSGIPVSEICQHRFLLYNKDATQHIFEVSAGLDSLVLGEGQILAQVKQVVKVGQGVNGFGRNISGLFKHAITVGKRVRTETNIASGAVSVSSAAVELALMKLPQSSNVSARMCVIGAGKMGKLVIKHLMAKGCTKVVVVNRSEERVSAIREEMPGIEIIYRPLDEMLACASEADVVFTSTASETPLFLKEHVENLPQASPEVGGLRHFVDISVPRNVGSCVGEVETARVYNVDDLKEVVAANKEDRMRKAMEAQTIITEESTQFEAWRDSLETVPTIKKLRAYAERIRVAELEKCMSKMGDDINKKTTRAVDDLSRGIVNRFLHGPMQHLRCDGSDSRTLSETLENMHALNRMYGLEKDILEEKLKAMAEQQQK
notes: Expression vector pMAL-c5X; GluTR dimer fractions were collected from the gel filtration

Tests used:
[1] = biological target: the molecule itself; assay: crystal structure; FLU^TPR-GluTR-GBP ternary complex, space group C2, 3.2 Å, PDB 5CHE; sitting drop, 16 °C
[2] = biological target: B1; assay: SEC; purified GluTR, GBP and FLU^TPR mixed at molar ratio 2:3:3, 1 hour at 4 °C; HiLoad 16/60 Superdex 200 pg; 20 mM Tris-HCl pH 7.5, 200 mM NaCl, 4 mM dithiothreitol; settings: both partners purified
[3] = biological target: B1; assay: ITC; MicroCal iTC200, 25 °C; 20 mM Tris-HCl pH 7.5, 150 mM NaCl; 20 injections of 2 μl of 0.5 mM protein into 200 μl of 50 μM protein; one-site binding model; apparent Kd; settings: both partners purified

Binder | binding result [1] | binding result [2] | stoichiometry N [1] | Kd [3]
C-terminal tetratricopeptide-repeat domain of Arabidopsis FLUORESCENT (FLU), residues 195-316 (domain or fragment, Arabidopsis thaliana, UniProt Q940U6 195-316, looked up, FLUORESCENT (FLU), Arabidopsis thaliana, At3g14110, truncation of residues 195-316 (TPR domain); Expression vector pET-22b(+); also called FLU^TPR; the recombinant TPR domain of FLU) IVEPKKQELISKLKTGKTFLRNQEPEKAYTEFKIALELAQSLKDPTEEKKAARGLGASLQRQGKYREAIQYHSMVLAISKRESEDSGITEAYGAIADCYTELGDLEKAGKFYDTYIARLETD | binds | binds | – | –
B1 | – | – | 2 | –
Arabidopsis GluTR-binding protein (GBP), residues 42-317 (natural protein, Arabidopsis thaliana, UniProt Q9LU39 42-317, looked up, Expression vector pET-28a(+)) CSVSTTLDTPATASTHKPFPAEVSRSIMELSSVGTLSTLTHDGWPLGVGVRFAVDKDGTPVLCLNRSVSPDKRSALHVQLEQCGLRTPQCTIQGSIGRPGDDTVLKRLSATWREKFGEEVKEDSLYVVAVDRVLQMEDFMEDGIWVASSDYKNASPDPLRDIAEDIVNQINANNMEDIFRFCNVYVDLDFVVSETKMIWMDRLGFDLRVWSPRGVYDVRIPFPMEVTDEKGAKSSFNGMSQLAWEVEKSYCPADFNKVKLLKQVVGSSHSHKGGGQ | binds | – | – | 41.3 ± 3.7 nM
